{
  "source": "the nanobody polyreactivity screen of Harvey et al. (2022)",
  "data": [
    {"test": "yeast display, Sf9 membrane polyspecificity reagent, FACS + sequencing; frameworks hold sequencing errors", "how_it_was_run": "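Using colony PCR, genes from sorted yeast display clones were amplified, then sequenced on MiSeq at 2 × 250 and filtered by CDR length. The clones had been stained with 10% biotinylated, detergent-solubilized Sf9 membrane reagent for 1 hour at 4 °C and sorted by FACS into low and high (top ~1%) gates on anti-HA and streptavidin fluorescence. Polyreactivity labels come from the gate of origin.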", "values": [
      {"sequence": "QVQLVESGGGLVQAGGSLRLSCAASGRTFVYYAMGWYRQAPGKEREFVATITSSGGSTYYADSVKGRFTISRDNAKNTVYLQMNSLKPEDTAVYYCSASPYIRYSKVSKYYYWGQGTQVTVSS", "polyreactivity (PSR sort gate)": "high polyreactivity"},
      {"sequence": "QVQLVESGGGLVQAGGSLRLSCAASGRTFWANAMGWYRQAPGKERELVAAINYSGGRTYYADSVKGRFTISRDNAKNTVYLQMNSLKPEDTAVYYCNVVHGGAISDYWGQGTQVTVSS", "polyreactivity (PSR sort gate)": "high polyreactivity"},
      {"sequence": "QVQLVESGGGLVQAGGSLRLSCAASGRTFWAYAMGWYRQAPGKERELVAAITASGTRTYYADSVKGRFTISRDNAKNTVYLQMNSLKPEDTAVYYCAAERIWWAHAYPTYVANDYWGQGTQVTVSS", "polyreactivity (PSR sort gate)": "high polyreactivity"},
      {"sequence": "QVQLVESGGGLVQAGGSLRLSCAASGRTFWFYGMGWYRQAPGKERELVADITSGGGTYYADSVKGRFTISRDNAKNTVYLQMNSLKPEDTAVYYCNAYKTHVVPATYDSEEYWGQGTQVTVSS", "polyreactivity (PSR sort gate)": "low polyreactivity"},
      {"sequence": "QVQLVESGGGLVQAGGSLRLSCAASGRTFWGNAMGWYRQAPGKERELVASISSRGSSTYYADSVKGRFTISRDNAKNTVYLQMNSLKPEDTAVYYCAARTHYFPWPWYVWDYDSWGQGTQVTVSS", "polyreactivity (PSR sort gate)": "low polyreactivity"},
      {"sequence": "QVQLVESGGGLVQAGGSLRLSCAASGRTFWLYAMGWYRQAPGKARELVASITRDGTSTYYADSVKGRFTISRDNPKNTVYLQMNSLKPEDTAVYYCAAVYHSKSRTIYWGQGTQVTVSS", "polyreactivity (PSR sort gate)": "high polyreactivity"},
      {"sequence": "QVQLVESGGGLVQAGGSLRLSCAASGRTFWLYAMGWYRQAPGKEREFVASISSSGDSTYYADSVKGRFTISRDNAKNTVYLQMNSLKPEDTAVYYCAARPSRRYLRNGLDYWGQGTQVTVSS", "polyreactivity (PSR sort gate)": "high polyreactivity"},
      {"sequence": "QVQLVESGGGLVQAGGSLRLSCAASGRTFWNYAMGWYIQAPGKEREFVAVIRFSDGSTYYADSVKGRFTISRDNAKNTVYLQMNSLKPEDTAVYYCAAKGPRRWGSGFDYWGQGTQLTVSS", "polyreactivity (PSR sort gate)": "low polyreactivity"},
      {"sequence": "QVQLVESGGGLVQAGGSLRLSCAASGRTFWRNTMGWYRQAPGKQREFVAASTFSGVRTYYADSVKGRFTISRDNAKNTVYLQMNSLKPEDTAVYYCAKSRQYIGGFDYWGQGTQVTVSS", "polyreactivity (PSR sort gate)": "high polyreactivity"},
      {"sequence": "QVQLVESGGGLVQAGGSLRLSCAASGRTFWRYAMGWYRQAPGKERELVAAISSGGRTNYADSVKGRFTISRDNAKNTVYLQMNSLKPEDTAVYYCAVKTVRSSSRNYWGQGTQVTVSS", "polyreactivity (PSR sort gate)": "high polyreactivity"},
      {"sequence": "QVQLVESGGGLVQAGGSLRLSCAASGRTFWSNAMGWYRQAPGKEREFVAVISRSGSTTYYADSVKGRYTISRDNAKKTVYLQMISLKPEDTAFYNCAADRVRSYFSRYYSTPLDYYWGQGTQVTVSS", "polyreactivity (PSR sort gate)": "high polyreactivity"},
      {"sequence": "QVQLVESGGGLVQAGGSLRLSCAASGRTFWSNAMGWYRQAPGKERELVAAISGGARTNYADSVKGRFTISRDNAKNTVYLQMNSLKPEDTAVYYCAATPRYWQSRYDYWGQGTQVTVSS", "polyreactivity (PSR sort gate)": "high polyreactivity"},
      {"sequence": "QVQLVESGGGLVQAGGSLRLSCAASGRTFWSYAMGWYRQAPGKEREFVAAISYSGSSTYADSVKGRFTISRDNAKNTVYLQMNSLKPEDTAVYYLLRGQGTQVTVSS", "polyreactivity (PSR sort gate)": "low polyreactivity"},
      {"sequence": "QVQLVESGGGLVQAGGSLRLSCAASGRTFWVNAMGSYRQAPGKERELVATIRGSGVSTYYADSVKGRFTISRDNAKNTVYLQMNSLKPEDTAVYYCAAGFAGGYGVTFDYCGQGTQVTVSS", "polyreactivity (PSR sort gate)": "low polyreactivity"},
      {"sequence": "QVQLVESGGGLVQAGGSLRLSCAASGRTFWVNTMGWYRQAPGKERELVAGITRSGTRTYYADSVKGRFTISRDNAKNTVYLQMNSLKPEDTAVYYCATGPWRYRYDYWGQGTQVTVSS", "polyreactivity (PSR sort gate)": "low polyreactivity"},
      {"sequence": "QVQLVESGGGLVQAGGSLRLSCAASGRTFWVYAMGWNRQATGKERELVATISKSAGITSYADSVKGRFTFSRDNAKNTVYLQMNSLKPEDTAVYYCAADKSYRRVYYWGQGTQVTVSS", "polyreactivity (PSR sort gate)": "low polyreactivity"},
      {"sequence": "QVQLVESGGGLVQAGGSLRLSCAASGRTFWVYAMGWYRQAPGKEREFVAAISGSVGSTYYADSVKGRFTISRDNAMKTVYLQMNSLKPEDTAVYYCAARQRRSEYGYWGQGTQVTVSS", "polyreactivity (PSR sort gate)": "high polyreactivity"},
      {"sequence": "QVQLVESGGGLVQAGGSLRLSCAASGRTFWVYAMGWYRQAPGKERELVASIRRGGSTYYADSVKGRFTISRDNAKNTVYLQMNSLKPEDTAVYYCAAERPYKTFGYGYWGQGTQVTVSS", "polyreactivity (PSR sort gate)": "high polyreactivity"},
      {"sequence": "QVQLVESGGGLVQAGGSLRLSCAASGRTFWYNAMGWYRQAPGKERELVATISPGGRTYYADSVKGRFTISRDNAKNTVYLQMNSVKPEDTAVYYCDASSSFSRYGVVPYYYWGQGTQVTVSS", "polyreactivity (PSR sort gate)": "high polyreactivity"},
      {"sequence": "QVQLVESGGGLVQAGGSLRLSCAASGRTFWYYAMGWSRQAPGKERELVAGITFTGGRTYYADSVKGRFTISRDNAKNTVYLQMNSLKPEDTAVYYCAAAGLDVGRKDRDGYWGQGTQVTVSS", "polyreactivity (PSR sort gate)": "low polyreactivity"},
      {"sequence": "QVQLVESGGGLVQAGGSLRLSCAASGRTFWYYAMGWYRQAPGKERELVAAISYSGDGTYYADSVKGRVTISRDNAKNTVYLPMHSLKPEDTAVYYCAAEWYEPTLPTAWSEYEYWGQGTQVTVSS", "polyreactivity (PSR sort gate)": "high polyreactivity"},
      {"sequence": "QVQLVESGGGLVQAGGSLRLSCAASGRTFWYYAMGWYRQAPGKERELVARISTGGSTNYADSVKGRFTISRDNAKNTVYLQMNSLKPEDTAVYYCAARPVWRRPSKFDYWGQGTQVTVSS", "polyreactivity (PSR sort gate)": "high polyreactivity"},
      {"sequence": "QVQLVESGGGLVQAGGSLRLSCAASGRTFWYYGMGWYRQAPGKERELVAAISRSGGRTYYADSVKGRFTISRDNAKNTVYLQMNSLKPEDTAVYYCVASYRRTFDYWGHGTQVTVSS", "polyreactivity (PSR sort gate)": "high polyreactivity"},
      {"sequence": "QVQLVESGGGLVQAGGSLRLSCAASGRTFWYYTMGWYRQAPGKEREFVAAIRGSGTSTYYADSGKARFTISRDNAKNNVYLQMNSLKPEDTAVYYCAAESPVYHLVTYDYWGQGTQVTVSW", "polyreactivity (PSR sort gate)": "high polyreactivity"},
      {"sequence": "QVQLVESGGGLVQAGGSLRLSCAASGRTFWYYTMGWYRQAPGKERELVAAITRRGGSTYYADSVKGRFTLSRDKAKNTVYLQMNSLKPEDTAVYYCARGGSRLTQGWLVTPYDYDYWGQGTQVTVSS", "polyreactivity (PSR sort gate)": "high polyreactivity"},
      {"sequence": "QVQLVESGGGLVQAGGSLRLSCAASGRTFWYYTMGWYRQAPGKERELVAAITSGGSTYYADSVKGRFTISRDNAKNTVYLQMNSLKPEDTAVYYCAAYLYWDFTYYYALVDYWGQGTQVTVSS", "polyreactivity (PSR sort gate)": "high polyreactivity"},
      {"sequence": "QVQLVESGGGLVQAGGSLRLSCAASGRTFWYYTMGWYRQAPGKERELVASITYRGGSTYYADSVKGRFTISRDNAKNTDYLQMNSLKPEDTAVYYCNARYKRYSYDYWGQGTQVTVSS", "polyreactivity (PSR sort gate)": "high polyreactivity"},
      {"sequence": "QVQLVESGGGLVQAGGSLRLSCAASGRTFYANTMGWYRPAPGKERELVASITSRGTSTYYADSVKGRFTISRDNAKNTVYLEMNSLKPEDTAVYYCAKAFIAPQYAWGGDYWGQGTQVTVSS", "polyreactivity (PSR sort gate)": "high polyreactivity"},
      {"sequence": "QVQLVESGGGLVQAGGSLRLSCAASGRTFYAYAMGLYRQAPGKERELVASIRWSSGSTNYADSVKRRFTISRDYAKITVYLQMNILKAEDTAVYYCAARYYYYGGHRLYWGQGTQLTVSS", "polyreactivity (PSR sort gate)": "high polyreactivity"},
      {"sequence": "QVQLVESGGGLVQAGGSLRLSCAASGRTFYAYAMGWYRQAPGKERELVAAITSGASTYYADSVKGRFTISRDNAKNTVYLQMNRLKPEDTAVYYCAKRVRYYKPGYDYWGQGTQVTVSS", "polyreactivity (PSR sort gate)": "low polyreactivity"},
      {"sequence": "QVQLVESGGGLVQAGGSLRLSCAASGRTFYDYAMGWYRQAPGKERELVASITGGASTNYADSVKGRFTISRDNAKNTVYLQMNSLKPEDTAVYYCAGRLYRGNVWDILLGGDYWGQGTQVTVSS", "polyreactivity (PSR sort gate)": "low polyreactivity"},
      {"sequence": "QVQLVESGGGLVQAGGSLRLSCAASGRTFYFNAMGWYRQAPGKERELVAGISGDGSTNYADSVKGRFTISRDNAKNTVYLQMNSLKPEDTAVYYCAARIRPGYRTWYYSWGQGTQVTVSS", "polyreactivity (PSR sort gate)": "low polyreactivity"},
      {"sequence": "QVQLVESGGGLVQAGGSLRLSCAASGRTFYFNGMGWSRQAPGKETELVAVITKSGGDTYYADSVKGRFTISRDNAKNTVYLQMNSLKPEDTAVYYCAAVYGYYTYWIPGFTWAVDYWGQGTQVTVSS", "polyreactivity (PSR sort gate)": "low polyreactivity"},
      {"sequence": "QVQLVESGGGLVQAGGSLRLSCAASGRTFYFNGMGWYRQAPGKERELVAAIRWRDSNTYYADSVKGRFTISRDNAKNTVYLQMNSLKPEDTAVYYCNVGIYSYGINGRYDYWGQGTQVTVSS", "polyreactivity (PSR sort gate)": "high polyreactivity"},
      {"sequence": "QVQLVESGGGLVQAGGSLRLSCAASGRTFYFNGMGWYRQAPGQERELVARISRRGGSTYYADSVKGRFTISRDNAKNTVYLQMNSLKPEDTAVYYCNTANYLLYDWGQGTQVNVSS", "polyreactivity (PSR sort gate)": "high polyreactivity"},
      {"sequence": "QVQLVESGGGLVQAGGSLRLSCAASGRTFYFYAMGWSRQSPGKERELVADIRGISGSTYYADSVKGRFTISRDNAKNTVYLQMNSLKPEDTAVYYCAADPYLGRAWRGRGYYWGQGTQVTVSS", "polyreactivity (PSR sort gate)": "high polyreactivity"},
      {"sequence": "QVQLVESGGGLVQAGGSLRLSCAASGRTFYFYAMGWYRQAPGKERELVAAITVRGGSTYYADSVKGRFTISRYNAKNTVYLQMNSLKPEDTAVYYCAADPYPYYGAYDYWGQGTQVTVSS", "polyreactivity (PSR sort gate)": "high polyreactivity"},
      {"sequence": "QVQLVESGGGLVQAGGSLRLSCAASGRTFYFYAMGWYRQAPGKERELVASISWSGGRTYYADSVKGRFTISRDNAKNTVYLQMNSLKPEVTSVYYSAAALWTGYSWGQATQVTVSS", "polyreactivity (PSR sort gate)": "low polyreactivity"},
      {"sequence": "QVQLVESGGGLVQAGGSLRLSCAASGRTFYGNAMGWYRQAPGKERELVAAISWSGCGTYYADSVKGRFTISRDNAKNTVYLQMNSLKPEDTAVYYCARTLFGRSANRYGYWGQGTQVTVSS", "polyreactivity (PSR sort gate)": "high polyreactivity"},
      {"sequence": "QVQLVESGGGLVQAGGSLRLSCAASGRTFYGNAMGWYRQAPGKERELVAGITRGGSTYYADSVKGRFTISRDNAKNTVYLQMNSLKPEDTAVYYCAATRYYSWGSRGGYWGQGTQVTVSS", "polyreactivity (PSR sort gate)": "high polyreactivity"},
      {"sequence": "QVQLVESGGGLVQAGGSLRLSCAASGRTFYGNGMGWYRQAPGKRELVAAISYSGASTYYADSVKGRFTISRDNAKNTVCLLMNSLKPEDTAVYYCAAQPSVYCSLFTRASEDYWGQGTQVTVSS", "polyreactivity (PSR sort gate)": "high polyreactivity"},
      {"sequence": "QVQLVESGGGLVQAGGSLRLSCAASGRTFYGNVMGWYRQPPGKERELVATISFSAGSTYYADSVKGRFTISRDNAKNTVYLQMNSLKPEDTAVYYCNADHTDYATGGGNYWGQGTQVTVSS", "polyreactivity (PSR sort gate)": "low polyreactivity"},
      {"sequence": "QVQLVESGGGLVQAGGSLRLSCAASGRTFYGYAIGRYIQAPGNERELVAAISRRGGSTNYADSVKGRFTISRDNAKNTVFLQMNSLKPEDTAVYYCNANYYRTHYDYWGQGTQVTVSS", "polyreactivity (PSR sort gate)": "high polyreactivity"}
    ]}
  ]
}
